According to US20210085800A1:

Target: CD123 on the surface of EOL-1, KOPN-8 and MOLM-1 cells (UniProt P26951)
Assay: cell-based or functional assay

Sequence of CD123 on the surface of EOL-1, KOPN-8 and MOLM-1 cells (P26951 19-378 limits assumed): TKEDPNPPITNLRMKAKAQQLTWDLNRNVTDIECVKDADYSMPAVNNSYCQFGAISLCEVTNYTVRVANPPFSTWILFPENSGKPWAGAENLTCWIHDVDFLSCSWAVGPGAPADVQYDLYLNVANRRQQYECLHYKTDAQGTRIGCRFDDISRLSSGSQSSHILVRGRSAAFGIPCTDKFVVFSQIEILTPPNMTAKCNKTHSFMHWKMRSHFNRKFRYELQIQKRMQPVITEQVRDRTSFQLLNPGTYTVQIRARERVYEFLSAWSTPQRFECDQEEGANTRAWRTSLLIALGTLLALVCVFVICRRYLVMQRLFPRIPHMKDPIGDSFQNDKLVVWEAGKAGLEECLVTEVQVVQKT

B1: huCD123-6Rv1.1-D2 (antibody, from a related filing, V domains shown)
VH: QFQLVQSGAEVVKPGASVKMSCKASGYTFTSSIMHWMKQKPGQGLEWIGYIKPYNDGTKYNQKFQGKATLTSDKSSSTANMELNSLTSEDSAVYYCAREGGNDYYDTMDYWGQGTSVTVSS
VL: DIQMTQSPSSMSASVGERVTITCRASQDINSYLSWFQQKPGKSPKTLIYRVNRLVDGVPSRFSGSGSGQDYSLTISSLEPEDMGIYYCLQYDAFPYTFGQGTKLEIKR
B1 was tested, and the IC50, in vitro cytotoxicity assay (WST-8), EOL-1 cells was 2 pM, the IC50, in vitro cytotoxicity assay (WST-8), KOPN-8 cells was 5 pM and the IC50, in vitro cytotoxicity assay (WST-8), MOLM-1 cells was 20 pM. It also gave a fold loss of cytotoxicity when CD123 is blocked by chCD123-6 of 100 fold.
